The source of these data is US20240218054A1 (MABLOC, published 2024).

For this assay, the target named is T1, recombinant YFV E protein (soluble E, sE; YFV Asibi strain) (Yellow fever virus, Asibi strain, UniProt Q6DV88 286-678).
T1 construct: also called YFV E antigen; YFV E monomer
The assay is described as follows: BLI monovalent (IgG on tip).

T1 sequence (Q6DV88 286-678): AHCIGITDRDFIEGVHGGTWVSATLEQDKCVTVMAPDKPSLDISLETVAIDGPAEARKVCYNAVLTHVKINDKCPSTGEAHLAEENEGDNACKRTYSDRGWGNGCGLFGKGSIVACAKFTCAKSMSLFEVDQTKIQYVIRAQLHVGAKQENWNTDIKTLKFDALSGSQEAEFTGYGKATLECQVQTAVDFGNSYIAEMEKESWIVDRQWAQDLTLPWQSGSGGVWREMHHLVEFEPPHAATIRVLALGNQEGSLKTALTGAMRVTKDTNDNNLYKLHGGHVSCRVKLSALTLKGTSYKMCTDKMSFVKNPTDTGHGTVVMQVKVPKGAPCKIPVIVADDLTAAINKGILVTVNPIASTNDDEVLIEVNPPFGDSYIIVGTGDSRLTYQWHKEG

B1: ADI-42189 (antibody, V domains shown)
VH: EVQLVESGGGVVQPGWSLRLSCAVSGFTFSSYAMHWVRQAPGKGLEWVAVISYDGSYKWYADSVKGRFTISRDNSKNTVYLQMNSLRAEDTAVYYCASLWFIVMTMSKNPETDYWGQGTLVTVSS
VL: DIQVTQSPSSLSASVGDRVTITCRASQGIRNDLAWYQQRPGKAPKRLIYAASSLQSGVPSRFSGSGSGTEFTLTISSLQPEDFATYYCLQHHSYPWTFGQGTKVEIK
notes: full-length IgG; also called Antibody Number 81
Take B1: the Kd was determined as 2.4 nM.

B2: ADI-42187 (antibody, V domains shown)
VH: EVQLLESGGGLVKPGGSLRLSCAASGFTFSSYSMNWVRQAPGKGLEWVSSISSRSSFMYYADSVKGRFTISRDNAKNSLYLQMNSLRVEDTAVYYCARDNSEVEDYGDYVLYHYYGMDVWGQGTTVTVSS
VL: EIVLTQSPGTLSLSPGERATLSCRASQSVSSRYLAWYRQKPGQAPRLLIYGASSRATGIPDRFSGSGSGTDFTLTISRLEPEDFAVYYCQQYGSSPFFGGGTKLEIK
notes: full-length IgG; also called Antibody Number 75
In the case of B2, the Kd amounted to 4.01 nM.

B3: ADI-45078 (antibody, V domains shown)
VH: EVQLVESGGGLIQPGGSLRLSCAASGFSFSSHAMTWVRQAPGKGLQWVSSIRGSDRTTNYADSVKGRFTVSRDNSKNTLYLQMNSLRAEDTAIYYCAKYYDSSGYYYFDHWGQGTLVTVSS
VL: DIRMTQSPSTLSASIGDRVTITCRASQSISDWLAWYLQKPGKAPSLLIYRASSLETGVPSRFSGRGSGTEFTLTISSLQPDDFGTYYCQQYNRDPYTFGQGTKVDIK
notes: full-length IgG; also called Antibody Number 82
As to B3, the Kd was 5.88 nM.

B4: ADI-49162 (antibody, V domains shown)
VH: EVQLVESGGTFLQPGGSLRLSCVASGFTFGTHAMSWVRQAPGKGLEWVSTFSGSGGRTYYADSVKGRFTISRDNSKSTLYLEMSALRAEDTAVYYCAKFYDSSGYYYFDYWGQGTLVTVSS
VL: DIQLTQSPSTLSASVGDRVTVTCRASQNVGGWLAWYQQKPGKAPKLLIFQASRLENGVPSRFSANASGTEFTLTIGSLQPDDFATYYCQQYNTYPYTFGQGTKVDIK
notes: full-length IgG; also called Antibody Number 83
Consider B4, for which the Kd came out at 2.19 nM.

B5: ADI-48435 (antibody, V domains shown)
VH: QVQLVQSGAEVKKPGASVKVSCKASGYTFTSYGISWVRQAPGQGLEWMGWISAYNGNTNYAQKLQGRVTMTTDTSTSTAYMELRSLRSDDTAVYYCARRGTTVTRFGVIQYYYGMDVWGQGTTVTVSS
VL: QSVLTQPASVSGSPGQSITISCTGTSSDVGGYNYVSWYQQHPGKAPKLMIYDVSNRPSGVSNRFSGSKSGNTASLTISGLQAEDEADYYCSSYTSSSTLVFGGGTQLTVL
notes: full-length IgG; also called Antibody Number 85
As for B5, the Kd was greater than 100 nM.

B6: ADI-45083 (antibody, V domains shown)
VH: QVQLVESGPGLVKPSGTLSLTCAVSGGSISSDYWWSWVRQPPGKGLEYIGEIYHTGSTNYNPSLKSRVTVSLDRSKNVFSLTLRSVTAADTAVYYCARSHWRSPQSVTFDLWGQGTTVTVSS
VL: QPVLTQPPSVSAAPGQKVTISCSGSNSNIGNYYVSWYQQFPGTAPKLLIYDNNKRPSGIPDRFSGSKSGTSATLAITGLQTGDEAHYYCGTWDTSSLSAGRVFGGGTKLTVL
notes: full-length IgG; also called Antibody Number 9
For B6, the Kd worked out at 3.45 nM.

B7: ADI-49561 (antibody, V domains shown)
VH: EVQLLESGGGVVQPGRSLRLSCVASGFTFSSYGMHWVRQAPGKGLEWVALISYDGSNKYYADSVKGRFTISRDNSKNTLYLQMNSLRAEDTAVYYCAKDQCGGDCTADYWGQGTLVTVSS
VL: QSVLTQPASVSGSPGQSITISCTGTSSDVGGDKYVSWYQQHPGKAPKPMIYEVSNRPSGVSNRFSGSKSGNTASLTISGLQAEDEADYYCSSYTSSSTPVVFGGGTKLTVL
notes: full-length IgG; also called Antibody Number 76
For the molecule B7, the Kd stood at 242 nM.

B8: ADI-49141 (antibody, V domains shown)
VH: EVQLQESGPGLVKPSGTLSLTCAVSGGSISSSNWWTWVRQPPGKGLEWIGEIYHSGSTNYNPSLESRVTMSVDKSKNQFSLKLSSVTAADTAVYYCARVQTSHSELWFGEFGADWGQGTLVTVSS
VL: DIVMTQSPATLSVSPGERATLSCRASQSVSSNLAWYQQKPGQAPRLLIYGASTRATGIPARFSGSGSGTEFTLTISSLQSEDFAVYSCQQYNTWPKTFGQGTKVEIK
notes: full-length IgG; also called Antibody Number 89
Regarding B8, the Kd came out at 187 nM.

B9: ADI-46742 (antibody, V domains shown)
VH: QVQLQESGPGLVKPSETLSLTCTVSGASIRSYLWSWIRQPPGKELEWLGSIYHSGSTKYNPSLKSRVTISADTSKNQFSLKLNSVTAADTAVFYCARETANNWFDPWGQGTLVTVSS
VL: SYELTQPPSVSVAPGQTARIICGGNYIGGKSVHWYQQKPGQAPVLVVYNDNDRPSGIPERFSGSNSGNTATLTISRVAAGDEADYYCQVWDNSSDRRVFGGGTKLTVL
notes: full-length IgG; also called Antibody Number 86
On to B9, for which the Kd is greater than 100 nM.

B10: ADI-42219 (antibody, V domains shown)
VH: QVQLVESGGGVVQPGRSLRLSCAASGFTFSSLAMHWVRQAPGKGLEWVATISYDVSNKYYADSVKGRFTISRDNSKNTLFLQMNSLRPEDTAVYYCARGYTGYDGFDYWGQGTLVTVSS
VL: QPVLTQPRSVSGSPGQSVTISCTGTSSDVGGYNYVSWYQQHPGKAPKLMISDVSKRPSGVPDRFSGSKSGNTASLTISGLQADDEADYYCCSYATNYGVVFGGGTKVTVL
notes: full-length IgG; also called Antibody Number 77
Turning to B10, the Kd worked out at 4.05 nM.

B11: ADI-42787 (antibody, V domains shown)
VH: EVQLVESGGGVVQSGRSLRLSCAASGFTFSGNAMHWVRQAPGKGLEWVAVILYDGSNQYYADSVKGRFTISRDNSKNTLYLQMNSLRPADTAVYYCARASMMPRPPVHDYWGQGTLVTVSS
VL: DIRVTQSPATLSVSPGERATLSCRASQRVNSNLAWYQQKPGQAPRLLIYGASTRATGIPVRFSGSGSGTEFTLTISSLQSEDFAVYYCQQYNTWWTFGQGTKVEIK
notes: full-length IgG; also called Antibody Number 87
As to B11, the Kd was 0.45 nM.

B12: ADI-42223 (antibody, V domains shown)
VH: EVQLVESGGGLVQPGGSLRLSCAASGFTFSDYYMDWVRQAPGKGLEWVGGIRNKPNSYTTEYAASVKGRFTISRDDSKNSLFLQMNSLKTEDTAVYYCVRLYGDYVAYFDYWGQGTLVTVSS
VL: DIQLTQSPSSLSASVGDRVTITCRASQSISQYLNWYQQKPGKAPKLLISPASSFQSGVPSRFSGSGSGTDFTLTITSLQPEDFATYYCQQSYSTPWTFGQGTKVDIK
notes: full-length IgG; also called Antibody Number 84
As to B12, the Kd worked out at 1.04 nM.

B13: ADI-50535 (antibody, V domains shown)
VH: QVQLVQSGAEVKKPGASVKVSCKASGYTFTSYGISWVRQAPGQGLEWMGWISAYNGNTNYAQKLQGRVTMTTDTSTSTAYMELRSLRSDDTAVYYCARRPYYYGSRRPAGHMDVWGQGTTVTVSS
VL: NFMLTQPHSVSESPGKTVTISCTRSSGSIASNYVQWYQQRPGSSPTTVIYEDNQRPSGVPDRFSGSIDSSSNSASLTISGLKTEDEADYYCQSYDSSNVVFGGGTKVTVL
notes: full-length IgG; also called Antibody Number 78
Consider B13, for which the Kd is greater than 100 nM.

B14: ADI-45128 (antibody, V domains shown)
VH: QVQLQESGPGLVRPSQTLSLTCTVSGGAISSGDYYWSWVRQPPGKGLEWIGYIHYSGTTYNNPSLKSRVTIAVDTSKNQFSLKLSSVTAADTAVYFCGRDSDKNYFDYWGQGTLVTVSS
VL: QSVLTQPPSVSAAPGQKVTISCSGSSSNIGNNDVSWYQQLPGRAPKLLIYDNNKRPSGIPDRFSGSKSGTSATLGITGLQTGDEADYYCGAWDSSLSAHVVFGGGTKVTVL
notes: full-length IgG; also called Antibody Number 79
In the case of B14, the Kd turned out to be 3.54 nM.

B15: ADI-45136 (antibody, V domains shown)
VH: EVQLVESGGGVVRPGRSLRLSCAASGFTFSSYGMHWVRQAPGKGLEWVAVIRFDGSNTVYADSVKGRFTISRDNSKNTLYLQMNSLRAEDTAVYYCAKTYDSNAYYYLDYWGQGTLVTVSS
VL: DIVMTQTPSTLSASVGDRVTVTCRASQSISDWLAWYQQKAGKAPKLLIYRASSLESGVPPRFSGSGSGTEFTLTISSLRPDDFATYYCQQYNRYPYTFGQGTKVDIK
notes: full-length IgG; also called Antibody Number 80
B15: the Kd amounted to 16.8 nM.

B16: ADI-49044 (antibody, V domains shown)
VH: QVQLVESGGGVVQPGRSLRLSCAASGFAFSSYGMHWVRQAPGKGLEWVAGMRFDGTKIYYADSVKGRFTISRDNSKNTLYLQMNSLRAEDTAVYFCARDLEVGAEYIYYYYGMDVWGQGTTVTVSS
VL: QPVLTQPPSASGTPGQRVTISCSGSSSNIGTNTVSWYQQLPGTAPQLLVFSRTQRPSGVPDRFSGSKSGTSASLAISGLQSDDEADYYCAAWDDSRNGWVFGGGTKLTVL
notes: full-length IgG; also called Antibody Number 8
As to B16, the Kd is 1.88 nM.

As usually defined, the Kd is the concentration at which binding is half-saturated.
